Measurements published in paper PMC8489928 (mAbs, 2021).
Where a chain is given by its changes, count along the chain named. Names and notes keep the numbering of the source. Values belong to the molecule of their own block, whether it stands above or below them.

How the values were obtained:
Human CD96 D1 (human) = Human CD96 D1 (human) (UniProt P40200); experiment: SEC-MALS
Mouse CD96 D1 (mouse) = Mouse CD96 D1 (mouse) (UniProt Q3U0X8); experiment: SEC-MALS
SEC-MALS = target: the molecule itself; experiment: SEC-MALS
Mouse CD96 D1 [1] = target: T1, Mouse CD96 D1 (mouse, UniProt Q3U0X8); experiment: SPR
Mouse CD96 D1 [2] = target: T1, Mouse CD96 D1; experiment: SEC-MALS

stoichiometry N (Human CD96 D1 (human)): 1
Molecule: Human CD155 (from UniProt P15151 21-417) (ligand)

stoichiometry N (Mouse CD96 D1 (mouse)): 1
Molecule: Mouse CD155 (ligand)

B1: Human CD96 D1-D3 (domain or fragment, UniProt P40200 22-519, looked up)
chain: VWEKTVNTEENVYATLGSDVNLTCQTQTVGFFVQMQWSKVTNKIDLIAVYHPQYGFYCAYGRPCESLVTFTETPENGSKWTLHLRNMSCSVSGRYECMLVLYPEGIQTKIYNLLIQTHVTADEWNSNHTIEIEINQTLEIPCFQNSSSKISSEFTYAWSVENSSTDSWVLLSKGIKEDNGTQETLISQNHLISNSTLLKDRVKLGTDYRLHLSPVQIFDDGRKFSCHIRVGPNKILRSSTTVKVFAKPEIPVIVENNSTDVLVERRFTCLLKNVFPKANITWFIDGSFLHDEKEGIYITNEERKGKDGFLELKSVLTRVHSNKPAQSDNLTIWCMALSPVPGNKVWNISSEKITFLLGSEISSTDPPLSVTESTLDTQPSPASSVSPARYPATSSVTLVDVSALRPNTTPQPSNSSMTTRGFNYPWTSSGTDTKKSVSRIPSETYSSSPSGAGSTLHDNVFTSTARAFSEVPTTANGSTKTNHVHITGIVVNKPKDGM
stoichiometry N (SEC-MALS): 2

B2: Mouse CD96 D1-D3 (domain or fragment, UniProt Q3U0X8 22-536, looked up)
chain: VWEELFNVGDDVYALPGSDINLTCQTKEKNFLVQMQWSKVTDKNDMIALYHPQYGLYCGQEHACESQVAATETEKGVTNWTLYLRNISSALGGKYECIFTLYPEGIKTTVYNLIVEPYTQDEHNYTIEIETNRTLEIPCFQNTSSEIPPRFTFSWLVEKDGVEEVLFTHHHHVNNSTSFKGRIRLGGDYRLHLSPVQIQDDGRTFSCHLTVNPLKAWKMSTTVKVFAKPEILMTVENSTMDVLGERVFTCLLKNVFPKANITWFIDGRFLQGNEEGIYITNEEKNCSSGFWELKSVLTRMHSGPSQSNNMTAWCMALSPGPRNKMWNTSSQPITVSFDSVIAPTKHLPTVTGSTLGTQPFSDAGVSPTGYLATPSVTIVDENGLTPDATPQTSNSSMTTKDGNYLEASSGTDAKNSSRAAASSKSGSWPFPFTSPPEWHSLPGTSTGPQEPDSPVSWIPSEVHTSAPLDASLAPHDTIISTTTEFPNVLTTANGTTKIDHGPITSIIVNQPSDGM
stoichiometry N (SEC-MALS): 2

B3: Human CD96 D1 (domain or fragment, UniProt P40200 22-140, looked up)
chain: VWEKTVNTEENVYATLGSDVNLTCQTQTVGFFVQMQWSKVTNKIDLIAVYHPQYGFYCAYGRPCESLVTFTETPENGSKWTLHLRNMSCSVSGRYECMLVLYPEGIQTKIYNLLIQTHV
stoichiometry N (SEC-MALS): 2

B4: Mouse CD96 D1 (domain or fragment, UniProt Q3U0X8 22-134, looked up)
chain: VWEELFNVGDDVYALPGSDINLTCQTKEKNFLVQMQWSKVTDKNDMIALYHPQYGLYCGQEHACESQVAATETEKGVTNWTLYLRNISSALGGKYECIFTLYPEGIKTTVYNL
stoichiometry N (SEC-MALS): 2

binding result (Mouse CD96 D1 [1]): binds
B5: mCD96-A heavy-chain G56K (Fab, V domains shown)
VH: QVQLKESGPGLVQPSQTLSLTCTVSGLSLTTNSVSWIRQPPGKGLEWMGVIWSNGKTDYNSDIKSRLSISRDTSKSQVFLKMNSLQTEDTAMYFCARNFPYPGINFDWGQGVMVTVSS
VL: QAVVTQESALTTLPGGTVTLTCHSSTGAVTTSNYANWIQEKADHSFTAILGGTSNRAPGTPARFSGSLLEGKAALTITGAQVEDEATYFCSLWYSGHLIFGGGTKLTVK

binding result (Mouse CD96 D1 [1]): binds
B6: mCD96-A light-chain G50H (Fab, V domains shown)
VH: B5 VH with K56G
VL: B5 VL with G52H

stoichiometry N (Mouse CD96 D1 [2]): 1
B7: mCD96-A Fab (Fab, V domains shown)
VH: B5 VH with K56G
VL: B5 VL

stoichiometry N (Mouse CD96 D1 [2]): 1
B8: mCD96-A-7 Fab (Fab, V domains shown)
VH: B5 VH with F106M
VL: B5 VL with G52H

binding result (Mouse CD96 D1 [1]): binds
B9: mCD96-A heavy-chain F101M (Fab, V domains shown)
VH: B5 VH with K56G, F106M
VL: B5 VL
